As a reminder, the Kd is the constant that tells how readily two partners part at equilibrium.

6 molecules from US20070128672A1 (ST VINCENT S HOSPITAL SYDNEY, published 2007) can be followed below.

Where two headings read alike, the source gives them in different places.

Test [1] concerns the target T1, p53 central domain (residues 95-298) (UniProt P04637 95-298).
T1 construct: range 95-298; Carries the vector's tag (purified as whole p53 on Ni2+ resin); also called central domain of p53
In words: immunoblot of purified central domain, Fab bacterial supernatant. Background: A western blot detects proteins with antibodies after separation by electrophoresis.

Test [2] deals with T2, bovine serum albumin (bovine, UniProt P02769 25-607).
T2 construct: also called BSA
T2 sequence (P02769 25-607 limits assumed): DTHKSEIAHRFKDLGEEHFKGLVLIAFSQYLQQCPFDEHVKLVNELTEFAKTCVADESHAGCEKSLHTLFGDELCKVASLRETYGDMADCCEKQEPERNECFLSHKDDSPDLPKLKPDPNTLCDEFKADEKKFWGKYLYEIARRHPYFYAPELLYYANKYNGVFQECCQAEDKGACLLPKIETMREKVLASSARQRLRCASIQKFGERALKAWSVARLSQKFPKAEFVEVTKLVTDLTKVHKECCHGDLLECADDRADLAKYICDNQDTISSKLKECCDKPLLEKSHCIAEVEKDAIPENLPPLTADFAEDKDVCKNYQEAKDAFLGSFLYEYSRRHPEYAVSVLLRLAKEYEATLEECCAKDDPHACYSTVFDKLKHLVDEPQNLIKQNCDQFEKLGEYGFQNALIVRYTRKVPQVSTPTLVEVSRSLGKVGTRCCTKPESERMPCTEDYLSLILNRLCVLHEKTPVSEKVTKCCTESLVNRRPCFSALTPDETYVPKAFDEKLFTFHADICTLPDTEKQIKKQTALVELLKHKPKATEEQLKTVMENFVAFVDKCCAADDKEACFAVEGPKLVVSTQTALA
Briefly: ELISA, crude Fab supernatant, detected with 9E10. In general terms: ELISA stands for enzyme-linked immunosorbent assay.

A further test deals with T3, CEA (UniProt P06731 35-685).
T3 sequence (looked up): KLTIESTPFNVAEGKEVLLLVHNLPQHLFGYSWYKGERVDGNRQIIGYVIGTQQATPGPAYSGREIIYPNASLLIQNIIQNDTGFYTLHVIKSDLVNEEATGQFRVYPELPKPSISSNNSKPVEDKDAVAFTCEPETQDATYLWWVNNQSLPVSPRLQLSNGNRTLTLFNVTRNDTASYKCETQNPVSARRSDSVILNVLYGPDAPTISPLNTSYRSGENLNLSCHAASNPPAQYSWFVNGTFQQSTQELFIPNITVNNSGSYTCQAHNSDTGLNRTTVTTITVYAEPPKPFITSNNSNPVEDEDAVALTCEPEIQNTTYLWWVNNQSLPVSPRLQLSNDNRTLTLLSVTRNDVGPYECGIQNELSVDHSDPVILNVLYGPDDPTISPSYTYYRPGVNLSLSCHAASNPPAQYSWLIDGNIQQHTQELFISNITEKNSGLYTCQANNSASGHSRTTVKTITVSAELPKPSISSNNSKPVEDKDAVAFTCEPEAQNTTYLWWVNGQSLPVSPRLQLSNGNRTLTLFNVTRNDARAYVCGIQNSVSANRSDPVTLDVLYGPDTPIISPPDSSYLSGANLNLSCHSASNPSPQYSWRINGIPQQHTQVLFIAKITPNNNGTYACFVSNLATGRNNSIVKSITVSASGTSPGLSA
In words: ELISA, crude Fab supernatant, detected with 9E10.

Test [3] addresses T4, ErbB2 extracellular domain (UniProt P04626 23-652, limits assumed).
T4 construct: extracellular domain
In words: ELISA, crude Fab supernatant, detected with 9E10.

Test [4] has as its target T5, recombinant p53 (wild type, whole protein) (UniProt P04637 1-393, limits assumed).
T5 construct: mature; Also tested unpurified in bacterial lysates; also called whole p53; full length p53
In words: SPR (BIAcore), p53 amine-coupled to a CM5 chip, Fab 10-200 nM injected, global fit, 1:1 model with drifting baseline.

Test [5] has as its target T6, p53 deletion construct 18 (residues 44-393) (human, UniProt P04637 44-393).
T6 construct: In E. coli lysate on an immunoblot; also called the 18 construct
In words: immunoblot of E. coli lysates, Fab detected with 9E10 and HRP goat anti-mouse.

The target in test [6] is T1, p53 central domain (residues 95-298). In words: ELISA, soluble Fab, detected with 9E10 and AP goat anti-mouse.
Test [7] addresses T5, recombinant p53 (wild type, whole …). The test is described as above.
For test [8], the target named is T2, bovine serum albumin. Briefly: cross reactivity ELISA, Fab detected with 9E10 and AP goat anti-mouse.
The target of test [9] is T5, recombinant p53 (wild type, whole …).
Test [10] concerns the target T2, bovine serum albumin. Briefly: cross reactivity ELISA, purified antibody, HRP goat anti-human.
The target in another test is hen egg white lysozyme (hen, UniProt P00698 19-147). The description is as above.
Chain of hen egg white lysozyme (P00698 19-147): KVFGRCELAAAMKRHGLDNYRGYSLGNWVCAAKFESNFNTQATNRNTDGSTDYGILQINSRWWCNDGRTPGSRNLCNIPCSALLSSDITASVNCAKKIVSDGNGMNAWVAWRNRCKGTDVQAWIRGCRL
The target in test [11] is T1, p53 central domain (residues 95-298). Briefly: ELISA, detected with HRP goat anti-human.
Test [12] concerns the target T7, p53 carboxy terminal domain (residues 283-393) (UniProt P04637 283-393).
T7 construct: Carries the vector's tag; also called C-terminal domain; carboxy terminal domain of the p53
In words: ELISA, detected with HRP goat anti-human.

T6 sequence (P04637 44-393 limits assumed, stated change not applied): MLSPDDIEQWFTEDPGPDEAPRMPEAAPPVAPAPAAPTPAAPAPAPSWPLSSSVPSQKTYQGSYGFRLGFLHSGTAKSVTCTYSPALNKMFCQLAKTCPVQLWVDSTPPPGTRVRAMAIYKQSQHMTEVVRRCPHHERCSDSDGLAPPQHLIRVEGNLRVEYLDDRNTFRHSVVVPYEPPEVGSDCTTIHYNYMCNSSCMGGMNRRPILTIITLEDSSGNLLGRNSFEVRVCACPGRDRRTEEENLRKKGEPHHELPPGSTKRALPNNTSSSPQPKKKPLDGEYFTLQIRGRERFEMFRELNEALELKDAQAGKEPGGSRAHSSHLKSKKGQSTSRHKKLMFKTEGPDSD
T1 sequence (P04637 95-298 limits assumed): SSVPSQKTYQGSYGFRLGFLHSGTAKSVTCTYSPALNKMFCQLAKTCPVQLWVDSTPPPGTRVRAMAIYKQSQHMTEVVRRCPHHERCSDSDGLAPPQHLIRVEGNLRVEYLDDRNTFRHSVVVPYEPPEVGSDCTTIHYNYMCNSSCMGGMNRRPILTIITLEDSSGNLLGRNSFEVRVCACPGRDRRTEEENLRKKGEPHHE
T5 sequence (P04637 whole entry): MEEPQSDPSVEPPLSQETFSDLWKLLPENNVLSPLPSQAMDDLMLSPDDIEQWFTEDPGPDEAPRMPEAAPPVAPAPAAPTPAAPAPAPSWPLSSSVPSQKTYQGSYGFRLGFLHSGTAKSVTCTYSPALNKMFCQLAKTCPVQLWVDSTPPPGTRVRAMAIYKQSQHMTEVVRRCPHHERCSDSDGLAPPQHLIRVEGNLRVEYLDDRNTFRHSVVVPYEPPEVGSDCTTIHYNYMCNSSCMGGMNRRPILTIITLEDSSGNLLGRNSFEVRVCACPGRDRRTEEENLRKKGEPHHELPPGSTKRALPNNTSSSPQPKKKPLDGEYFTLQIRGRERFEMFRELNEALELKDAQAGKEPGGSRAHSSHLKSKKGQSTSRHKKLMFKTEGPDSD
T7 sequence (P04637 283-393 limits assumed): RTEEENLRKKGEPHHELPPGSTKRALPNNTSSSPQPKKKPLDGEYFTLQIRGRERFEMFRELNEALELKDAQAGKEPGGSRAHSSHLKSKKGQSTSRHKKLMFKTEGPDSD

B1: Fab clone 163.1 (Fab, V domains shown)
VH: VQLLEQSGAEMKRPGASVTISCQASRQTFSGQYIHWVRQAPGQGLEWMGVINPSGGSANYAPSFQGRLSMSRDASTNTVYMKLSSLTSEDTAVYYCLSQALKYWGQGTLVAVSS
VL: AAELTQSPDSLAVSLGERATINCKSNQSVLYNSNSKNYLAWYQQKPGQPPKLLIYWASTRESGVPDRFSGSGSGTDFTLTITSLQAEDVAVYYCQQYFSSPYTFGQGTKLEIK
notes: myc tag on the C terminus of the heavy chain
As to B1, the binding result in [1] was “no binding”; with bovine serum albumin [2], “no binding (tested: antigen coated at 1 µg/ml)”; with CEA, “no binding (tested: antigen coated at 5 µg/ml)”; in test [3], “no binding (tested: antigen coated at 5 µg/ml)”; in test [5] it was “no binding”. Also, the Kd in test [4] was found to be 0.0119 µM.

B2: Fab clone 1159.8 (Fab, V domains shown)
VH: VQLLESGGGLIQPGRSLRLSCTASGFPFGDSAMTWFRQAPGKGLEWVGFIRSKAYGAATAYAASMKGRVTISRDDAKSIAYLHMSRLKIEDTAVYFCSRVKAGGPDYWGQGTLVTVSS
VL: AAELTQSPLSLPVIPGEPASISCRSSQSLLHRNGYNYLDWYLQKPGQSPQLLIYLGSTRASGVPDRFSGSGSGTDFTLNIRRVEAEDVGVYYCMQGLQTPYTFGEGTKVEIK
notes: Soluble Fab selected by panning on the p53 central domain; detected through the myc tag (9E10)
As to B2, the binding result in test [6] is “binds”; in test [7], “binds”; in the test with bovine serum albumin [8], “no binding (tested: antigen coated at 1 µg/ml)”.

B3: Fab clone 163.5 (Fab, V domains shown)
VH: VQLLEQSGAEVKRPGASVTISCQASRQDFSGQYIHWVRQAPGQGFEWMGIINPSGGSANYAPKFKGRLTMSRDSSTDTVYMTLTSLTSEDTAVYYCLLQALKHWGQGTLVAVSS
VL: AAELTQSPDSLAVALGERATINCKSSQSVLYSLNNKNYLAWYQQKPGQPPKLLIHWASTRESGVPDRFSGSGSETDFTLTISSLQAEDVAVYYCQQYYTTPYTFGQGTKLEIK
As for B3, the binding result in the test with bovine serum albumin [2] is listed as “no binding (tested: antigen coated at 1 µg/ml)”; in the test with CEA, “no binding (tested: antigen coated at 5 µg/ml)”; in test [3] it was “no binding (tested: antigen coated at 5 µg/ml)”; in test [5] it was “no binding”. Moreover, the Kd in test [9] turned out to be 0.015 µM.

B4: Fab clone 163.17 (Fab, V domains shown)
VH: VQLLEQSGAEVKRPGASVTISCRASRQDFSGQYIHWVRQAPGQGFEWMGIINPSGGSANYAPKFKGRLTMSRDSSTETVYMTLTSLTSEDTAVYYCLLQALKHWGQGTLVGPSS
VL: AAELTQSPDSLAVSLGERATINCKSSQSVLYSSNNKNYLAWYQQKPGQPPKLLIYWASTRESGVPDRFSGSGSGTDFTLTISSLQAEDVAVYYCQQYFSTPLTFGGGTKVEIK
notes: Human IgG1 kappa Fab (MCO1 vector, soluble from E. coli HB2151), myc tag on the C terminus of the heavy chain
B4: the binding result in the test with bovine serum albumin [2] is reported as “no binding (tested: antigen coated at 1 µg/ml)”; with CEA, “no binding (tested: antigen coated at 5 µg/ml)”; in test [3], “no binding (tested: antigen coated at 5 µg/ml)”; in test [5], “no binding”. Also, the Kd in test [4] amounted to 0.0157 µM.

B5: Fab clone 163.24 (Fab, V domains shown)
VH: VQLLEQSGAEVKRPGASVTISCQASRQNFSGQYIHWVRQAPGQGLEWMGIINPSGGSANYAPRFKGRLSMSRDSSTDTAYLTLTSLTSEDTAVYFCLLQSLKHWGQGTLVAVSS
VL: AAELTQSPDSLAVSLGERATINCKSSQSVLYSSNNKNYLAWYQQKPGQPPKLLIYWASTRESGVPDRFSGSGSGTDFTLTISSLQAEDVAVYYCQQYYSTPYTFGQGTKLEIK
notes: as for B4
For the molecule B5, the binding result with bovine serum albumin [2] is “no binding (tested: antigen coated at 1 µg/ml)”; with CEA it was “no binding (tested: antigen coated at 5 µg/ml)”; in [3], “no binding (tested: antigen coated at 5 µg/ml)”; in test [5], “no binding”. For the same molecule, the Kd in test [4] is 0.0138 µM.

B6: whole anti-p53 antibody from CHO clone C4B4 (antibody, V domains shown)
VH: VQLLEQSGAEVKRPGASVTISCQASRQDFSGQYIHWVRQAPGQGFEWMGIINPSGGSANYAPKFKGRLTMSRDSSTDTVYMTLTSLTSEDTAVYYCLLQALKHWGQGTLVAVSS
VL: AAELTQSPDSLAVALGERATINCKSSQSVLYSLNNKNYLAWYQQKPGQPPKLLIHWASTRESGVPDRFSGSGSETDFTLTISSLQAEDVAVYYCQQYYTTPYTFGQGTKLEIK
notes: also called C4B4G4
Take B6: the binding result with bovine serum albumin [10] was “no binding (tested: antigen coated at 20 µg/ml)”; with hen egg white lysozyme, “no binding (tested: antigen coated at 10 µg/ml)”; in [11] it was “no binding (tested: antigen coated at 2 µg/ml)”; in test [12] it was “no binding (tested: antigen coated at 2 µg/ml)”.
